In the supplement of paper PMC6757056:
± gives the standard deviation of the averaged measurements.

B1: library; a variant is named by its letters at N, in order (parent)
chain: GCUGUCACCGAGAAACUGUGAAGUAUAUCUUAAACCUGGGCACUUAAAAGAUAUAUGGAGUUAGUAGUGCAACCUGCUCGGUCUGAUGAGUCCNNNNNNGGACGAAACAGC

How the values were obtained:
cyclic di-GMP [1] = variants of: B1; test: normalized RNA/DNA level without ligand (relative to sTRSVctl = 100) (log10 (% of sTRSVctl)); HEK293T; ligand: cyclic di-GMP (c-di-GMP-II aptamer); higher = less ribozyme self-cleavage, higher mRNA level; conditions: reporter: mCherry (pCS4076), ligand present: no
Outline: (§1)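 Library plasmids encoding reporter-linked ribozyme switches (mCherry, or eGFP for some folinic acid experiments) were transfected into HEK293T at 4 µg per 6-well well. Ligand, when used, was added 1 h before transfection. Total RNA was extracted with EDTA 72 h later, then reverse-transcribed, amplified, barcoded and sequenced. RNA level was RNA reads over DNA reads, divided by a spiked-in non-cleaving control (or the top 25 sequences), ×100, log10; only sequences with ≥100 DNA reads were kept.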

cyclic di-GMP [2] = variants of: B1; test: normalized RNA/DNA level with ligand (relative to sTRSVctl = 100) (log10 (% of sTRSVctl)); HEK293T; ligand: cyclic di-GMP (c-di-GMP-II aptamer); ligand concentration (+) RNA-Seq: 1 mM; higher = less ribozyme self-cleavage, higher mRNA level; conditions: reporter: mCherry (pCS4076), ligand present: yes
Outline: as §1

Row | Variant | normalized RNA/DNA level without ligand (log10) (cyclic di-GMP [1]) | normalized RNA/DNA level with ligand (log10) (cyclic di-GMP [2])
1 | GCUGUCACCGAGAAACUGUGAAGUAUAUCUUAAACCUGGGCACUUAAAAGAUAUAUGGAGUUAGUAGUGCAACCUGCUCGGUCUGAUGAGUCCAGAUACGGACGAAACAGC | 1.64 ± 0.029 | 1.79 ± 0.12
2 | GCUGUCACCGAGAAACUGUGAAGUAUAUCUUAAACCUGGGCACUUAAAAGAUAUAUGGAGUUAGUAGUGCAACCUGCUCGGUCUGAUGAGUCCAGUGAGGGACGAAACAGC | 1.52 ± 0.11 | 1.67 ± 0.13
3 | GCUGUCACCGAGAAACUGUGAAGUAUAUCUUAAACCUGGGCACUUAAAAGAUAUAUGGAGUUAGUAGUGCAACCUGCUCGGUCUGAUGAGUCCCCAUGUGGACGAAACAGC | 1.68 ± 0.054 | 1.8 ± 0.097
4 | GCUGUCACCGAGAAACUGUGAAGUAUAUCUUAAACCUGGGCACUUAAAAGAUAUAUGGAGUUAGUAGUGCAACCUGCUCGGUCUGAUGAGUCCCCUACGGGACGAAACAGC | 1.7 ± 0.021 | 1.82 ± 0.13
5 | GCUGUCACCGAGAAACUGUGAAGUAUAUCUUAAACCUGGGCACUUAAAAGAUAUAUGGAGUUAGUAGUGCAACCUGCUCGGUCUGAUGAGUCCAAUGUCGGACGAAACAGC | 1.68 ± 0.03 | 1.84 ± 0.11
6 | GCUGUCACCGAGAAACUGUGAAGUAUAUCUUAAACCUGGGCACUUAAAAGAUAUAUGGAGUUAGUAGUGCAACCUGCUCGGUCUGAUGAGUCCGGAGACGGACGAAACAGC | 1.72 ± 0.035 | 1.85 ± 0.059
7 | GCUGUCACCGAGAAACUGUGAAGUAUAUCUUAAACCUGGGCACUUAAAAGAUAUAUGGAGUUAGUAGUGCAACCUGCUCGGUCUGAUGAGUCCAUGUCGGGACGAAACAGC | 1.64 ± 0.035 | 1.76 ± 0.087
